Assay results: patent EP4745153A1, “GLP-1, GIP AND GCG RECEPTOR […] USE THEREOF” (Jiangsu Hengrui Pharmaceuticals Co., Ltd., priority 2023, dated 2025)
Like-named read-outs stand apart in the source and are kept apart here. Starred links: 1 amine or outer side, 2 acyl side, 3 side chain; linkers in the order of their positions; H or OH if unused. Non-standard residues stand in square brackets, D forms with d. Groups on a side chain read outwards from the residue. No end group written: not given here. *: point of attachment. C20 diacid = O=C(O)CCCCCCCCCCCCCCCCCCC(=O)*; γGlu = O=C(O)[C@H](CCC(=O)[*:2])N[*:1]; αMeL = CC(C)C[C@](C)(N)C(=O)O; Iva = CC[C@](C)(N)C(=O)O; Ac4c = NC1(C(=O)O)CCC1; AEEA = NCCOCCOCC(=O)O; Ac3c = NC1(C(=O)O)CC1; Aib = CC(C)(N)C(=O)O

B1: Compound No. 0149 (peptide)
peptide: H[Aib]HGTFTSDYSILLEK([AEEA-AEEA-γGlu-C20 diacid])QAA[Ac3c]EFVEWLLA[dE]GPSSGAPPPS-NH2
modifications: N-terminus assumed
SMILES: CC[C@H](C)[C@H](NC(=O)[C@H](CO)NC(=O)[C@H](Cc1ccc(O)cc1)NC(=O)[C@H](CC(=O)O)NC(=O)[C@H](CO)NC(=O)[C@@H](NC(=O)[C@H](Cc1ccccc1)NC(=O)[C@@H](NC(=O)CNC(=O)[C@H](Cc1c[nH]cn1)NC(=O)C(C)(C)NC(=O)[C@@H](N)Cc1c[nH]cn1)[C@@H](C)O)[C@@H](C)O)C(=O)N[C@@H](CC(C)C)C(=O)N[C@@H](CC(C)C)C(=O)N[C@@H](CCC(=O)O)C(=O)N[C@@H](CCCCNC(=O)COCCOCCNC(=O)COCCOCCNC(=O)CC[C@H](NC(=O)CCCCCCCCCCCCCCCCCCC(=O)O)C(=O)O)C(=O)N[C@@H](CCC(N)=O)C(=O)N[C@@H](C)C(=O)N[C@@H](C)C(=O)NC1(C(=O)N[C@@H](CCC(=O)O)C(=O)N[C@@H](Cc2ccccc2)C(=O)N[C@H](C(=O)N[C@@H](CCC(=O)O)C(=O)N[C@@H](Cc2c[nH]c3ccccc23)C(=O)N[C@@H](CC(C)C)C(=O)N[C@@H](CC(C)C)C(=O)N[C@@H](C)C(=O)N[C@H](CCC(=O)O)C(=O)NCC(=O)N2CCC[C@H]2C(=O)N[C@@H](CO)C(=O)N[C@@H](CO)C(=O)NCC(=O)N[C@@H](C)C(=O)N2CCC[C@H]2C(=O)N2CCC[C@H]2C(=O)N2CCC[C@H]2C(=O)N[C@@H](CO)C(N)=O)C(C)C)CC1
B2: Compound No. 0151 (peptide)
peptide: H[Aib]HGTFTSDYSILLEK([AEEA-AEEA-γGlu-C20 diacid])KAAQEFVEWLLA[dE]GPSSGAPPPS-NH2
modifications: N-terminus assumed
SMILES: CC[C@H](C)[C@H](NC(=O)[C@H](CO)NC(=O)[C@H](Cc1ccc(O)cc1)NC(=O)[C@H](CC(=O)O)NC(=O)[C@H](CO)NC(=O)[C@@H](NC(=O)[C@H](Cc1ccccc1)NC(=O)[C@@H](NC(=O)CNC(=O)[C@H](Cc1c[nH]cn1)NC(=O)C(C)(C)NC(=O)[C@@H](N)Cc1c[nH]cn1)[C@@H](C)O)[C@@H](C)O)C(=O)N[C@@H](CC(C)C)C(=O)N[C@@H](CC(C)C)C(=O)N[C@@H](CCC(=O)O)C(=O)N[C@@H](CCCCNC(=O)COCCOCCNC(=O)COCCOCCNC(=O)CC[C@H](NC(=O)CCCCCCCCCCCCCCCCCCC(=O)O)C(=O)O)C(=O)N[C@@H](CCCCN)C(=O)N[C@@H](C)C(=O)N[C@@H](C)C(=O)N[C@@H](CCC(N)=O)C(=O)N[C@@H](CCC(=O)O)C(=O)N[C@@H](Cc1ccccc1)C(=O)N[C@H](C(=O)N[C@@H](CCC(=O)O)C(=O)N[C@@H](Cc1c[nH]c2ccccc12)C(=O)N[C@@H](CC(C)C)C(=O)N[C@@H](CC(C)C)C(=O)N[C@@H](C)C(=O)N[C@H](CCC(=O)O)C(=O)NCC(=O)N1CCC[C@H]1C(=O)N[C@@H](CO)C(=O)N[C@@H](CO)C(=O)NCC(=O)N[C@@H](C)C(=O)N1CCC[C@H]1C(=O)N1CCC[C@H]1C(=O)N1CCC[C@H]1C(=O)N[C@@H](CO)C(N)=O)C(C)C
B3: Compound No. 0148 (peptide)
peptide: H[Aib]HGTFTSDLSILLEK([AEEA-AEEA-γGlu-C20 diacid])QAA[Ac3c]EFVEWLLA[dE]GPSSGAPPPS-NH2
modifications: N-terminus assumed
SMILES: CC[C@H](C)[C@H](NC(=O)[C@H](CO)NC(=O)[C@H](CC(C)C)NC(=O)[C@H](CC(=O)O)NC(=O)[C@H](CO)NC(=O)[C@@H](NC(=O)[C@H](Cc1ccccc1)NC(=O)[C@@H](NC(=O)CNC(=O)[C@H](Cc1c[nH]cn1)NC(=O)C(C)(C)NC(=O)[C@@H](N)Cc1c[nH]cn1)[C@@H](C)O)[C@@H](C)O)C(=O)N[C@@H](CC(C)C)C(=O)N[C@@H](CC(C)C)C(=O)N[C@@H](CCC(=O)O)C(=O)N[C@@H](CCCCNC(=O)COCCOCCNC(=O)COCCOCCNC(=O)CC[C@H](NC(=O)CCCCCCCCCCCCCCCCCCC(=O)O)C(=O)O)C(=O)N[C@@H](CCC(N)=O)C(=O)N[C@@H](C)C(=O)N[C@@H](C)C(=O)NC1(C(=O)N[C@@H](CCC(=O)O)C(=O)N[C@@H](Cc2ccccc2)C(=O)N[C@H](C(=O)N[C@@H](CCC(=O)O)C(=O)N[C@@H](Cc2c[nH]c3ccccc23)C(=O)N[C@@H](CC(C)C)C(=O)N[C@@H](CC(C)C)C(=O)N[C@@H](C)C(=O)N[C@H](CCC(=O)O)C(=O)NCC(=O)N2CCC[C@H]2C(=O)N[C@@H](CO)C(=O)N[C@@H](CO)C(=O)NCC(=O)N[C@@H](C)C(=O)N2CCC[C@H]2C(=O)N2CCC[C@H]2C(=O)N2CCC[C@H]2C(=O)N[C@@H](CO)C(N)=O)C(C)C)CC1
B4: Compound No. 0150 (peptide)
peptide: H[Aib]HGTFTSDYSILLEK([AEEA-AEEA-γGlu-C20 diacid])QAA[Ac4c]EFVEWLLA[dE]GPSSGAPPPS-NH2
modifications: N-terminus assumed
SMILES: CC[C@H](C)[C@H](NC(=O)[C@H](CO)NC(=O)[C@H](Cc1ccc(O)cc1)NC(=O)[C@H](CC(=O)O)NC(=O)[C@H](CO)NC(=O)[C@@H](NC(=O)[C@H](Cc1ccccc1)NC(=O)[C@@H](NC(=O)CNC(=O)[C@H](Cc1c[nH]cn1)NC(=O)C(C)(C)NC(=O)[C@@H](N)Cc1c[nH]cn1)[C@@H](C)O)[C@@H](C)O)C(=O)N[C@@H](CC(C)C)C(=O)N[C@@H](CC(C)C)C(=O)N[C@@H](CCC(=O)O)C(=O)N[C@@H](CCCCNC(=O)COCCOCCNC(=O)COCCOCCNC(=O)CC[C@H](NC(=O)CCCCCCCCCCCCCCCCCCC(=O)O)C(=O)O)C(=O)N[C@@H](CCC(N)=O)C(=O)N[C@@H](C)C(=O)N[C@@H](C)C(=O)NC1(C(=O)N[C@@H](CCC(=O)O)C(=O)N[C@@H](Cc2ccccc2)C(=O)N[C@H](C(=O)N[C@@H](CCC(=O)O)C(=O)N[C@@H](Cc2c[nH]c3ccccc23)C(=O)N[C@@H](CC(C)C)C(=O)N[C@@H](CC(C)C)C(=O)N[C@@H](C)C(=O)N[C@H](CCC(=O)O)C(=O)NCC(=O)N2CCC[C@H]2C(=O)N[C@@H](CO)C(=O)N[C@@H](CO)C(=O)NCC(=O)N[C@@H](C)C(=O)N2CCC[C@H]2C(=O)N2CCC[C@H]2C(=O)N2CCC[C@H]2C(=O)N[C@@H](CO)C(N)=O)C(C)C)CCC1

What was measured:
Test in all cases: cell-based or functional assay
human glucagon receptor [1] = target: T1, human glucagon receptor (human, UniProt P47871 26-477)
T1 sequence (P47871 26-477): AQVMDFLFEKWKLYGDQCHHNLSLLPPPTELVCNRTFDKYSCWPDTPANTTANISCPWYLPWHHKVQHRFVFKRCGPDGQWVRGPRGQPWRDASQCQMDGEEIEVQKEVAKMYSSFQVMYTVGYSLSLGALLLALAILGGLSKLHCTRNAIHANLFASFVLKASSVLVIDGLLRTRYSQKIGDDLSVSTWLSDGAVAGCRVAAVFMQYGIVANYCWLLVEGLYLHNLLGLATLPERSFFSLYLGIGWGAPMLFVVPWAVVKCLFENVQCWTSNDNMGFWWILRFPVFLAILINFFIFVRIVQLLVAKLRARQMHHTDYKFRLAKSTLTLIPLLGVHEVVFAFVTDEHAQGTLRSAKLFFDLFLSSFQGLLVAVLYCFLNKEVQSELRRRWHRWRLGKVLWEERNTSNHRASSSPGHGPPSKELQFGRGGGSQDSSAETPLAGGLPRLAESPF

[2] = target: T2, human glucagon-like peptide-1 receptor (human, UniProt P43220 24-463)
[3] = target: T3, human glucose-dependent insulinotropic polypeptide receptor (human, UniProt P48546 22-466)
T3 sequence (looked up): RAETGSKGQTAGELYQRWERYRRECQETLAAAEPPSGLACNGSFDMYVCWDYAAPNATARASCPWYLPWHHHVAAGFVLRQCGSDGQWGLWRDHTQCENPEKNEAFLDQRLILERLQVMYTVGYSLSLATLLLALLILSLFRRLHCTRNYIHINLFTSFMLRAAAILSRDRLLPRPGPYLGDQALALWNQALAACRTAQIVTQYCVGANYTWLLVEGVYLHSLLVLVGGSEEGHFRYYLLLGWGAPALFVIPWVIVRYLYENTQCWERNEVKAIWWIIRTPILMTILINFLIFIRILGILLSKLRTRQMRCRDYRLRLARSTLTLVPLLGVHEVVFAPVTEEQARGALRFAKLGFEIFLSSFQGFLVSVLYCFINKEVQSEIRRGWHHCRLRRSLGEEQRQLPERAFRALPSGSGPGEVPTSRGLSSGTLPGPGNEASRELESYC

human glucagon receptor [4] = target: T1, human glucagon receptor; remark: listed apart in the source
[5] = target: T2, human glucagon-like peptide-1 receptor; remark: listed apart in the source
[6] = target: T3, human glucose-dependent insulinotropic …; remark: listed apart in the source
human glucagon receptor [7] = target: T1, human glucagon receptor; remark: listed apart in the source
[8] = target: T3, human glucose-dependent insulinotropic …; remark: listed apart in the source
human glucagon receptor [9] = target: T1, human glucagon receptor; remark: listed apart in the source

Row | Binder | Activity against human GIPR (EC50 nM) [3] | Activity against human GCGR (EC50 nM) (human glucagon receptor [4]) | Activity against human GLP-1R (EC50 nM) [5] | other results
1 | H[Aib]HGTFTSDYSK[Aib]LEK([AEEA-AEEA-γGlu-C20 diacid])KAAQEFVEWLLAGGPSSGAPPPS-NH2 [Compound No. 0107] | – | – | – | Activity against human GCGR (EC50 nM) (human glucagon receptor [1]): 0.274 nM; Activity against human GLP-1R (EC50 nM) [2]: 0.016 nM
2 | B1 | 0.004 nM | 0.301 nM | 0.071 nM | –
3 | H[Aib]QGTFTSDYSI[αMeL]LEK([AEEA-AEEA-γGlu-C20 diacid])KAA[Aib]EFVEWLLAGGPSSGAPPPS-NH2 [Compound No. 0157] | – | – | – | Activity against human GIPR (EC50 nM) [6]: 0.008 nM; Activity against human GCGR (EC50 nM) (human glucagon receptor [7]): 1.33 nM
4 | H[Aib]QGTFTSDYSILLEK([AEEA-AEEA-γGlu-C20 diacid])KAA[Aib]EFVEWLLAGGPSSGAPPPS-NH2 [Compound No. 0156] | – | – | – | Activity against human GIPR (EC50 nM) [6]: 0.019 nM; Activity against human GCGR (EC50 nM) (human glucagon receptor [7]): 0.566 nM
5 | B2 | 0.004 nM | 0.055 nM | 0.037 nM | –
6 | H[Aib]HGTFTSDLSILLEK([AEEA-AEEA-γGlu-C20 diacid])KAA[Iva]EFVEWLLAGGPSSGAPPPS-NH2 [Compound No. 0136] | – | – | – | Activity against human GIPR (EC50 nM) [8]: 0.001 nM; Activity against human GCGR (EC50 nM) (human glucagon receptor [9]): 0.039 nM
7 | B3 | 0.006 nM | 0.549 nM | 0.06 nM | –
8 | B4 | 0.002 nM | 0.076 nM | 0.076 nM | –
